Assay results reported in the DeepSol protein solubility set.

Test: soluble on expression in E. coli; label from the status in PepcDB or PDB records

Q: For “MKIQCDVCEKAPATLICCADEAALCAKCDVEVHAANKLASKHQRLFLDSLSTKFPPCDICLEKAAFIFCVEDRALLCRDCDEATHAPNTRSANHQRFLATGIRVALSSTSCNQEVEKNHFDPSNQQSLSKPPTQQPAAPSPLWATDEFFSYSDLDCSNKKEQLDLGELDWLAEMGLFGDQPDQEALPVAEVPELSFSHLAHAHSYNRPMKSNVPNKKQRLEYRYDDEEEHFLVPDLG”, which “soluble on expression in E. coli” value is on record?
A: not soluble

Q: Which “soluble on expression in E. coli” value does the source give for “MKKALLYRRGGLGDTLLTFPILEILKRRGYETIAVGNTDYFSIAKEVGYADGVYSFIPEEEFDLKVIISFEGNVKPFPEKREWIVKHYLNSLGLGEEFSTKLPIKPVQDSPLKGKVVIHPSSGSKKKNPPLEVFLKLKDFLEERGKEVVFLLGEAEEHLREVLSPHFLSLSPLEIAKHLKTAGFYVGLDSGISHLASYLGVPSFIVYGPTDPLVWRPIGDKVFQISLNLDCSPCFPNVCEERMCLDTEEVLRKTKETLLRYWNSL” here?
A: not soluble

Q: For “MKKALSLLTVSALSIGMLSACGPKDSGKKEESKAKKDYDLLVWEDDKKGVGLEPAVKSFEEKYKVKVKVVEMQMTDQVKKLRLDGPAGTGPDVVTLPHDQIGNAVTEGLLSEVKADDAVKSKFTDSSIEAQTYNGKLYGLPKAIETPVFIYNKKLMPKAPETMDELFNFSKEFTKDGKYGFLALGDNFYFANAFMAGMGGYVFGEKDGKPNASDVGLNNSGAVQGAEYLQKWYKEKLFPKGIIGESGGPAADGLFNEGKAASIMNGPWAFQAMEKNGIDYGVAPMPKLPNGQPLKTFVGVKGWHVTSFSKQNDLATKFTEWVTNEENAKIRFEKTKEIPPVKAVMEDPIIKDNEAAKAVATQSENGIPMPNIPEMQEVWKPAGDALQLVVTDKEAPKAALDSAVKQIKGNIEANHSKQK”, which “soluble on expression in E. coli” value is on record?
A: not soluble

Q: For “MKKDVTQKQTIIKFENGHLYTASDSCITEMPLTIKVNEFKFATIICSRNYLEELTLGFLASEGIFLKRNDLQSIHIDESKGFAHVKLTQSVGHHFEHPTKRVLASCCGKSRAFYFQNDAAIAKTSMTTILEHHHHHH”, which “soluble on expression in E. coli” value is on record?
A: not soluble

Q: Which “soluble on expression in E. coli” value does the source give for “MKKERVDVLAFNQGLFETREKAKRSVMAGLVYNDKNERLDKPGEKISVETPLHTKGQVMPYVSRGGLKLEKALNVFAINVQGKTMLDIGSSTGGFTDVALQNGARLSYALDVGYNQLAWKIRQDERVVVMERTNFRYSKPEDFTEGVPDIATIDVSFISLRLILPPLHDILKKGGSVVALIKPQFEAGKEFVGKKGIVRDPETHQMVVEEITRFAMNNGYDVKNLDFSPITGGEGNIEFLAHLVSVEGEGSYQAPESIEEVVAHAHQKLAE” here?
A: not soluble

Q: With “MKKFDVAIVGGGLAGLTASIYLAKVGRKVIVLEKSSQFGGRGMTTNKNGICMNLGAHALYRGGAAFITFNELGMTLPGGIPSTKAHGIWKGDIFTIPTDFRSILSTPLLSWSAKVQFSRLMIRLGNLDVGEVPKMSLTTWAENEIKDPMVRNIFYALCRTTTYTFAPTIQLASSVLKQIQLSIKEGVLYVDGGWETIITKLRAIANDIGVQFLAKKHVVEIEHSEGKQRIHCVDDEVFEVGTVIVTTPPKEACKIIKGAEGTSLHKWSEQSVPVTVGALDIGLRQLPNPTHQFVLGLDQPIFFTNQSRAAKLSEDGSIAVSLIKYHNPVLEMNHIHEDKEQLESTMELLHSNWKREVVAQQYLPKITVVHDFPHIDRVEKPGPNIPEMPGVYVAGDWAGHDEILADAAVASGKRAALHILKQYESEAVHHGNGAVILEHHHHHH” as the sequence, how does the “soluble on expression in E. coli” value read?
A: soluble

Q: For “MKKIAVFADVQNLYYTVRQAYGCHFNYAALWADISKRGEIVHAFAYAIDRGDSKQQQFQQILRNLGFTVRLKPYIQRSDGSAKGEWDVGITIDIMDFAPQVDEVVLASGDGDFDMLLDRVISKHGVEAVAYGVPGLTANSLIRAASRYVPIEGALLLK”, which “soluble on expression in E. coli” value is on record?
A: not soluble

Q: For “MKKIIFTFLILGNVYNFAAQKTLRTVEKCRVTSKGTTKDGKRFANCISLQSGKTFNFTGLVDQTYYKFSKGTIFKVYFYGNGNRNLTLETFDYIR”, which “soluble on expression in E. coli” value is on record?
A: not soluble

Q: Which “soluble on expression in E. coli” value does the source give for “MKKIPLGTTDITLSRMGLGTWAIGGGPAWNGDLDRQICIDTILEAHRCGINLIDTAPGYNFGNSEVIVGQALKKLPREQVVVETKCGIVWERKGSLFNKVGDRQLYKNLSPESIREEVAASLQRLGIDYIDIYMTHWQSVPPFFTPIAETVAVLNELKSEGKIRAIGAANVDADHIREYLQYGELDIIQAKYSILDRAMENELLPLCRDNGIVVQVYSPLEQGLLTGTITRDYVPGGARANKVWFQRENMLKVIDMLEQWQPLCARYQCTIPTLALAWILKQSDLISILSGATAPEQVRENVAALNINLSDADATLMREMAEALER” here?
A: soluble

Q: With “MKKPNGTNGASSSLEPPPSTFQPLCHPLVEEVSKEVDGYFLQHWNFPNEKARKKFVAAGFSRVTCLYFPKALDDRIHFACRLLTVLFLIDDLLEYMSFEEGSAYNEKLIPISRGDVLPDRSIPVEYIIYDLWESMRAHDREMADEILEPVFLFMRAQTDRTRARPMGLGGYLEYRERDVGKELLAALMRFSMGLKLSPSELQRVREIDANCSKHLSVVNDIYSYEKELYTSKTAHSEGGILCTSVQILAQEADVTAEAAKRVLFVMCREWELRHQLLVARLSAEGLETPGLAAYVEGLEYQMSGNELWSQTTLRYSVVVD” as the sequence, how does the “soluble on expression in E. coli” value read?
A: soluble

Q: Which “soluble on expression in E. coli” value does the source give for “MKKRRFPRVNAVLSRWGVALSDARETQAEQARLADFEARGGLEAPAYALSPGMRTFDLAPLVEEYAQHGEALAALHDPARNQTGYRSGNGYYDTPDAEALYLMIRRYQPRRVIEVGCGNSTRITRQAALDGGLETEITAIDPWPRADIAGVVDRFEQARLEEVDPAVFAALEADDVLFIDSSHQVRMSNDVAHLFCRIIPALAPGVVIHVHDVFLPYEYPKRFFYDCPSWAEQYVLHALIQSGGYDILWPGYYLQRARPDAVEALPFLGQGRAQSFWIRKL” here?
A: not soluble

Q: For “MKKTDTLPATLSALIQEYSIAEGIQMAEQQVRENPAKALCRHSLFQLLCVAGDWSRALHQLQLCARMEANYTQEARLYRELVRCEMFRHTVFQGEQRPGFLLPQPVWVESLLAALACHDDTGEVDKHRNTALEAITDTGGQWNGGAFDWASDSDSRLGPVLELVTGGVYIWLPFSQIRSLESPQPTRLTDLLWKPVNITLVNGDTHGAWLFTRYSGSESASDALRLCRETAWQDGPGETTVRALGQKVWLTSHGDISLLDMAHCTFHAQENDGA”, which “soluble on expression in E. coli” value is on record?
A: not soluble

Q: For “MKKTQLGRSFSKSFKQKKARASNASSDPFRFQNNGISYKGKLIGEQDVDKARGDAMCAEAMRTAKSIIKAAGAHKTRITLQINIDGIKVLDEKSGAVLHNFPVSRISFIARDSSDARAFGLVYGEPGGKYKFYGIKTAQAADQAVLAIRDMFQVVFEMKKKQIEQVKQQQIQDGGAEISSKKEGGVAVADLLDLESELQQIERGVQQLSTVPTNCDAFGASPFGDPFVDSFNSTATSNGTANMSGTQVPFGGLQLPQVQQMQMPMVQIPQQSHQNWPTSGAGSFDAWGQQQQQQQMHHAHSTPAFGTNGFSDTNPFASAFNTQARPPPLPTVAPTQYRDPFSVHSSAIPNSNIDWTGTGTTKENMAPSTNIQQQQSSLHHASTFANFGDNKAETWSEKKVTSLEEAFTKLVDMDALVGGQGIKETKKNPFEHILNPPKASLNSMSTTCSAAQMAATQQHTTSSHADPFGDDFFR”, which “soluble on expression in E. coli” value is on record?
A: not soluble

Q: Which “soluble on expression in E. coli” value does the source give for “MKKVFDVWDVETAKRFLEVIRNETIYYPVLIALHTGMRAGEIVSLKWYDVNFEARIISVVKSVRNNRGLKTSDVKTKTSKRSVYINDVLFSELKNLYETIKPKPDDFVCPRLPTGNLTVGYLSKRFKLLVKRYNFPVIRFHDLRHTFATLMLSLGVNTKIVAEILGHSDIKLTADTYSHVLPTMQESAMKEFSKLWKLEHHHHHH” here?
A: not soluble

Q: Which “soluble on expression in E. coli” value does the source give for “MKKVKSIGLIETLGMVGVVEAADAALKAANVTLLGYEFNGAGYMVIKLTGDVAAVKAAVSSGAATAQKLGNLVAAHVIPRPDDQVIDTEICGKDNVPPFNGSDSEPEDGKPSGSSSEKESKESTETAVKASEPKPATATADKEEAPLEKAAPEAKDAKDTKEAPAKQASKPEAKTKSSKPTASEAKNASSPKTPEKQADSGKTAPAKTDGGNKPKSRK” here?
A: not soluble

Q: With “MKKVSIIIPFKGQTEAELMLPLSSIYNQIGVDLSQLDIHLVNDGGKTIDLSKFDVLADRLEIHYHEIPNGGPGVARQYGIDNSISEYIMFIDADDVLYYVGALWPFYNASNQGHQMIRASYWEQIAGNPYTYTVHGNGDRKAAYGKWYKRSYIEMLGLRFMPDLPIYEDTYFVGLACELATDTCFLEEKVYMWLANPNSITRTVENKFNYQAHIYARENRYWFEMIRKWKPECLEHHHHHH” as the sequence, how does the “soluble on expression in E. coli” value read?
A: soluble

Q: Which “soluble on expression in E. coli” value does the source give for “MKKVTKSIKREGSPSDEEYTLEEDPIEFELEKMERGSSNGESEEESQRDQKQADSIIDDMVEQNDQEQEAAGEQDVERENDLRKMYELSLLPPAAIAAQIQQMEKEIYELSQWEARELIRSKHLRIFGNCRRRANKLEHHHHHHH” here?
A: not soluble

Q: For “MKKYIITAFAFITLLTGSVTFTACEDIDDIKELNLDRLLSPTNLTARVRDKVNIELTWDEMDRAQSYVIEVFKEDPDFTGTAISTLESEKATYTVTGLEGETSYSIRVKSVAEGITDSKWVSATRSTDAEQILLEVAEEDLTASEVTLRWPAGQVATEIIITPNDVAAHRVTSDEIAAGAATIKNLKSETTYTATLKNGDKTRGTMVFTTLINLDGALPAYPGDNLATIIATAEANATIVLLPKDDNNSFIYTDESGTAKTLEIELTKDVTIKGLYAENRPTTNIKFVLSGCNNFKIENLNLTASDGGTIITVLDSKGGNITVTNCDVTGFGSLLVENDNTQTGTINTFTVDNCIFHDMASGKRFVDYQKKKSFIAEFTLKNSTFYNCCSGSDFIRFDRHSTKGNIINISNCTLYGIEATSKGLFYVRSNSVGNKDFTANITKCIFANMSNKVFFSQDTKTDNLTFNSNYYFEAPSLLSIPEGGAGKVVDATGVTLDPGFTDAANGNFKVSNQTIIDNEIGDPRWRK”, which “soluble on expression in E. coli” value is on record?
A: soluble

Q: With “MKKYLILVGSPPACGKTYVSGELAKRLNNPVYLDKDTVIPLSKMVFKAANQPYNRDSDFFKEYVRDAEYIVTFDLAFESLNYNNCVIVNAPFSKEFRDKGYMNNLKNKLKKYNAELIPVWVSCDIDVCHKRMIKRNSDRDTWKLNNWDEYVKGQNYTTPDLEGLFVVDNSSNEDFEAGLKKLLEKVLLEHHHHHH” as the sequence, how does the “soluble on expression in E. coli” value read?
A: soluble

Q: Which “soluble on expression in E. coli” value does the source give for “MKLAARVESVSPSMTLIIDAKAKAMKAEGIDVCSFSAGEPDFNTPKHIVEAAKAALEQGKTRYGPAAGEPRLREAIAQKLQRDNGLCYGADNILVTNGGKQSIFNLMLAMIEPGDEVIIPAPFWVSYPEMVKLAEGTPVILPTTVETQFKVSPEQIRQAITPKTKLLVFNTPSNPTGMVYTPDEVRAIAQVAVEAGLWVLSDEIYEKILYDDAQHLSIGAASPEAYERSVVCSGFAKTYAMTGWRVGFLAGPVPLVKAATKIQGHSTSNVCTFAQYGAIAAYENSQDCVQEMLAAFAERRRYMLDALNAMPGLECPKPDGAFYMFPSIAKTGRSSLDFCSELLDQHQVATVPGAAFGADDCIRLSYATDLDTIKRGMERLEKFLHGIL” here?
A: soluble

Q: For “MKLALLGRQALMGVMAVALVAGMSAKSFADEGLLNKVKERGTLLVGLEGTYPPFSFQGEDGKLTGFEVDFAEALAKHLGVKASLKPTKWDGMLASLDAKRIDVVINQVTISDVRKKKYDFSTPYTVSGIQALVKKGNEGTIKTAADLQGKKVGVGLGTNYEEWLRQHVQGVDIRTYDDDPTKYQDLRVGRIDAILVDRLAALDLVKKTKGTLAVTGDAFSRQESGVALRKGNEDLLKAVDNAIAEMQKDGTLKALSEKWFGADVTQ”, which “soluble on expression in E. coli” value is on record?
A: not soluble

Q: Which “soluble on expression in E. coli” value does the source give for “MKLDKYTVGKRYGKALFELAVEKNQAEAIYQELLTLREVYHQVPGIGDILSDDRLEPYEKDSIMEKLVTGFSEMMQNFLRVVYEYRRMYDLLLMIDEYERRYDEHQGLILGSVTTAIPLSKEQHQAMEEKAAQLLGYEQAHLVNLIDPSIVGGVVIEANHQVIDGSIRKQLEHMQQKLLK” here?
A: not soluble
